Here are results for 18 sequences from the supplement of paper PMC9170038.

In this data set the test system is MS2 coat protein. The data set is described as follows: apparent KD of MS2 coat protein; higher = weaker reporter binding. Particulars: Eterna round: R107. The protocol: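 RNA-MaP round R107: designed RNA switches with theophylline, tryptophan, arginine or FMN aptamers are transcribed on-chip within common flanks. They are titrated with SNAP-549-labelled MS2 coat protein in RNA-MaP buffer (100 mM Tris pH 7.5, 80 mM KCl, 4 mM MgCl2), without ligand or with the indicated ligand. Median apparent KD per design.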

The mark [1] stands for this setting: input ligand: theophylline 20 uM.
Where [2] appears, read: input ligand: theophylline 2 mM.
Setting [3] is: input ligand: tryptophan 2.4 mM.

As for “ACAUGAGGAUCACCCAUGUAGCGUAGGGAAGGAGCGGAAUAGAGUCCAGGUAGGUCGCCCAUAUGAUGAUCUCACUUAUUAUCGA [#13 Same State - Arginine A]”, the “apparent KD of MS2 coat protein” value by setting is: (input ligand: arginine 13.2 mM) 39.1 nM; (input ligand: none) 21.1 nM; under setting [1], 36.7 nM; under setting [2], 40.8 nM; under setting [3], 22.9 nM.
The matching figures for “ACAUGAGGAUCACCCAUGUAUGACUAUCCUCGAGGACCGGUACGGCCGCCACUCGAACGAGUGGCUCGCGAGUGCGCACUUGCGA [5' end]”: 16.7 nM, 13.2 nM, 16.7 nM, 12.7 nM and 11.9 nM.
Turning to “ACAUGAGGAUCACCCAUGUAUGAUGUUCCUCGAGGACCGGUACGGCCGCCACUCGAACGAGUGGCGCGCGAGCGCGCGCUCGCGC [aVa]”, the “apparent KD of MS2 coat protein” value was 14 nM (input ligand: arginine 13.2 mM); 15.6 nM (input ligand: none); 27.2 nM under setting [1]; 17.3 nM under setting [2]; 15.2 nM under setting [3].
As for “ACAUGAGGAUCACCCAUGUAUGAUGUUCCUCGAGGACCGGUACGGCCGCCACUCGAACGAGUGGCGCGCGAGUGCGCACUCGCGC [aWa]”, the “apparent KD of MS2 coat protein” value runs as follows: (input ligand: arginine 13.2 mM) 21.1 nM; (input ligand: none) 15.7 nM; under setting [1], 38.8 nM; under setting [2], 16.8 nM; under setting [3], 14.1 nM.
Consider “ACAUGAGGAUCACCCAUGUAUGGCGCGGAAGGAGCGUGAUUAAGCACAGGUAGGUCGCUGCGUUGAUCGAGCGUUAGCUCGAUAA [SSArg A #9]”, for which the “apparent KD of MS2 coat protein” value reads like this: (input ligand: arginine 13.2 mM) 15.8 nM; (input ligand: none) 19 nM; under setting [1], 25.1 nM; under setting [2], 22.4 nM; under setting [3], 22.3 nM.
The corresponding values for “ACAUGAGGAUCACCCAUGUAUUACCGGGAAGGAGCGCGUGAAAACGCAGGUAGGUCGCUCGGCGUCGUGCUGUAAAGCACGACGA [#1 Same State - Arginine A Attempt #25 (HarryS)]” are 13.3 nM, 11.5 nM, 16.2 nM, 15.6 nM and 13.4 nM.
The matching figures for “ACAUGAGGAUCACCCAUGUAUUCAUCAGAAGGAGCGUGGAAUAACACAGGUAGGUCGCUGAUUAUUUGUUAAAUAAAAUCGUGUA [JR_Nu_SSArginiA_Sub022]”: 12.5 nM, 17.3 nM, 20.6 nM, 17.1 nM and 18.3 nM.
Consider “ACAUGAGGAUCACCCAUGUCAGGGCACGAUACCAGCUGAUCCGAUGGCCCUUGGCAGCGUGACGUGUGGUCAUGAGGAUCACCCG [kvfmullin]”, for which the “apparent KD of MS2 coat protein” value (input ligand: arginine 13.2 mM) came to 139 nM, the “apparent KD of MS2 coat protein” value under setting [1] worked out at 209 nM and the “apparent KD of MS2 coat protein” value under setting [3] turned out to be 182 nM.
Consider “ACAUGAGGAUCACCCAUGUCAUGAGGUUCACGAGGACCGGUACGGCCGCCACUCGACAUGAGGGUCACCCGUGAAGGGAACACCC [xdmullin]”, for which the “apparent KD of MS2 coat protein” value is 18.1 nM (input ligand: arginine 13.2 mM); 22.7 nM (input ligand: none); 29.8 nM under setting [1]; 42.9 nM under setting [2]; 17.9 nM under setting [3].
On to “ACAUGAGGAUCACCCAUGUGAAGCAGGGUACGAGGACCGGUACGGCCGCCACUCGAGCAUUAUAACGAGUGAAUGGCAACGAUGU [whbob_Ex_trypto A_2s16]”, for which the “apparent KD of MS2 coat protein” value (input ligand: arginine 13.2 mM) worked out at 11.7 nM; the “apparent KD of MS2 coat protein” value (input ligand: none) amounted to 12.4 nM; the “apparent KD of MS2 coat protein” value under setting [1] came to 19 nM; the “apparent KD of MS2 coat protein” value under setting [2] turned out to be 17.4 nM; the “apparent KD of MS2 coat protein” value under setting [3] was 12.8 nM.
With “ACAUGAGGAUCACCCAUGUGGAGCAGGGUACGAGGACCGGUACGGCCGCCACUCGAGCGUUAUGACGAGUGAAUGGCAACGAUGU [whbob_X-Trypto_A_V1.0]”, the “apparent KD of MS2 coat protein” value is 9.93 nM (input ligand: arginine 13.2 mM); 10.5 nM (input ligand: none); 15.9 nM under setting [1]; 12.5 nM under setting [2]; 12.1 nM under setting [3].
The corresponding values for “ACAUGAGGAUCACCCAUGUGGCGUCUUGAUACCAGACCCGAAGUAGUCCCUUGGCAGCAACUACGUGAGGGUCGCCCAUGUGUAG [k'kmullin]” are 23.5 nM, 30.4 nM, 40.8 nM, 40.9 nM and 25.5 nM.
With “ACAUGAGGAUCACCCAUGUGUGUAAAUCCUCGAGGACCGGUACGGCCGCCACUCGAACGAGUGUAAGAUGAAUGUUACAUUCAUC [SS Trp A s2]”, the “apparent KD of MS2 coat protein” value (input ligand: arginine 13.2 mM) was determined as 70.8 nM, the “apparent KD of MS2 coat protein” value under setting [1] worked out at 134 nM and the “apparent KD of MS2 coat protein” value under setting [2] was found to be 116 nM.
For “ACAUGAGGAUCACCCAUGUGUGUAAGUCCUCGAGGACCGGUACGGCCGCCACUCGAACGAGUGAAGCCUGAUACUAAGUAUCAGG [SS Trp A s5]”, the “apparent KD of MS2 coat protein” value runs as follows: (input ligand: arginine 13.2 mM) 99.6 nM; (input ligand: none) 15.4 nM; under setting [1], 20.7 nM; under setting [2], 14.4 nM; under setting [3], 18.7 nM.
For the sequence “ACAUGAGGAUCACCCAUGUGUGUAAGUCCUCGAGGACCGGUACGGCCGCCACUCGAUUGAGUGUAAGUUGAAUGUAACAUUCAAC [whbob_SS_trypto A_2s10]”, the “apparent KD of MS2 coat protein” value (input ligand: arginine 13.2 mM) worked out at 16.4 nM, the “apparent KD of MS2 coat protein” value under setting [1] was determined as 22.8 nM and the “apparent KD of MS2 coat protein” value under setting [2] was determined as 18.1 nM.
On to “ACAUGAGGAUCACCCAUGUUAUUUACCGAAGGAGCGGGUAUAUACCCAGGUAGGUCGCGGACAACAUGAGGAUCACCCACAUGAG [AstrosSSArgA#21]”, for which the “apparent KD of MS2 coat protein” value by setting is: (input ligand: arginine 13.2 mM) 45.5 nM; (input ligand: none) 28.5 nM; under setting [1], 53.4 nM; under setting [2], 71.4 nM; under setting [3], 27.8 nM.
“ACAUGAGGAUCCGAUACCAGCCACAUGAGGAUCACCCAUGUAGUACAUGAGGAUCACCCAGGCCCUUGGCAGCGGACAUGAGGAU [Exclusion - Theophylline B]”: the “apparent KD of MS2 coat protein” value was determined as 95.9 nM (input ligand: arginine 13.2 mM), 331 nM under setting [1] and 149 nM under setting [3].
On to “ACAUGAGGGCGAAGGAGCGCGAACAUGAGGAUCACCCAUGUCUAUAUCCGUCCGCAUGUAUCGCAGGUAGGUCGCGCUGUUACUU [#13 Exclusion - Arginine B]”, for which the “apparent KD of MS2 coat protein” value runs as follows: (input ligand: arginine 13.2 mM) 8.99 nM; (input ligand: none) 8.6 nM; under setting [1], 11.4 nM; under setting [2], 8.5 nM; under setting [3], 8.52 nM.
